Values quoted from earlier work, collected in PMC8112298.

Biological target: protein Z (Homo sapiens) (UniProt P22891)
UniProt P22891, sequence (P22891 41-400): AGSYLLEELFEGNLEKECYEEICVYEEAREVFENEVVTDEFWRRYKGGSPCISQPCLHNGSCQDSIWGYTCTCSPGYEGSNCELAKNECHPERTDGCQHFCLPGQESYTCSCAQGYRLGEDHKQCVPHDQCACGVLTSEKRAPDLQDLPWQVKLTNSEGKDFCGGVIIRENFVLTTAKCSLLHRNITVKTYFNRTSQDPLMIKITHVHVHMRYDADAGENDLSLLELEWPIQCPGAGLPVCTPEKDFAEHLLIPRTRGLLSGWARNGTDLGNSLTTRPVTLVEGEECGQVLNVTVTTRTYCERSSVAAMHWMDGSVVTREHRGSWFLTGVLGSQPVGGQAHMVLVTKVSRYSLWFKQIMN

In the case of ZPI (from UniProt Q9UK55), the Kd is listed as 10 nM.
